Results reported in article PMC12578633.

B1: 326-366.26 (IgG1) (antibody, V domains shown)
VH: QMQLQESGPGLVKPSGTLSLTCAVSGGSISNSHWWSWVRQSPGKGLEWIGEIYHSGSTYYNPSLKSRLTISVDKSKNQFSLKLTSVTAADTAVYFCARGLGWEQGGYRAFDMWGQGTTVTVSS
VL: EIVMTQSPATLSVSPGERVTLSCRASQSVGSSLAWYQQKPGQAPRLLIYAASTRATGIPARFSGSGSGTEFTLTISSLQSEDFAVYYCQQHYNWPPLTFGGGTKVEIK
B2: 326-289.74 (IgG1) (antibody, V domains shown)
VH: QVQLVQSGAEVKKPGSSVKVSCKASGGTFSIYTFTWVRQAPGHGLEWMGGILPISGSAKYAQKFLGRVTITADESTSTVYMELSSLRSEDTAIYYCARDPYSNYFYGLDVWGQGTTVTVSS
VL: EIVLTQSPVTLSLSPGERATLSCRASQSVSRFLAWYQQKPGQAPRLLFYDASTRATGIPARFSGTGSGTDFTLTISGLEPEDFAVYYCQQRSNWPPEYSFGQGTKLEIK

Key:
[1] = target: H5 A/Sichuan/26221/2014 HA ectodomain (influenza A virus H5N6 A/Sichuan/26221/2014)
[2] = target: H5 A/Cambodia/2302009/2023 HA ectodomain (influenza A virus H5N1 A/Cambodia/2302009/2023)
[3] = target: H5 A/Victoria/149/2024 HA ectodomain (influenza A virus H5N1 A/Victoria/149/2024)
[4] = target: H5 A/Indonesia/05/2005 HA ectodomain (influenza A virus H5N1 A/Indonesia/05/2005)

| Binder | neutralization IC80, R4ΔPB1 reporter virus H5N6 A/Sichuan/26221/2014 [1] [µg/mL] | neutralization IC80, R4ΔPB1 reporter virus H5N1 A/Cambodia/2302009/2023 [2] [µg/mL] | neutralization IC80, R4ΔPB1 reporter virus H5N1 A/Victoria/149/2024 [3] [µg/mL] | neutralization IC80, R4ΔPB1 reporter virus H5N1 A/Indonesia/05/2005 [4] [µg/mL] |
| --- | --- | --- | --- | --- |
| B1 | 0.008 | > 25 | 0.193 | 0.009 |
| B2 | 0.006 | 0.133 | 0.335 | 0.014 |
